Biological target: ectodomain of CD147 (CD147^ECT, residues 22-205), wild type (human) (UniProt P35613)

An MMP-2 production of fibroblasts co-cultured with K7721-WT cells (full-length WT CD147 on cells) treated with different concentrations of Cu2+ up to 30 uM, gelatin zymography of 2.2 fold was found for “ectodomain of CD147 (CD147^ECT, residues 22-205), wild type (from UniProt P35613-2 22-205) (domain or fragment)” in this work.

Source: publication PMC5584238
